Common to all, as to assay: ProtoArray, GST-treated control array;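 note: human protein microarray (about 9500 recombinant proteins) incubated overnight with GST alone plus SAM cofactor as the negative control for G9a SET domain methylation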
The target of test [1] is T1, C2orf43-chromosome 2 open reading frame 43 (C2orf43) (human, UniProt Q9H6V9 1-325, limits assumed).
T1 sequence (looked up): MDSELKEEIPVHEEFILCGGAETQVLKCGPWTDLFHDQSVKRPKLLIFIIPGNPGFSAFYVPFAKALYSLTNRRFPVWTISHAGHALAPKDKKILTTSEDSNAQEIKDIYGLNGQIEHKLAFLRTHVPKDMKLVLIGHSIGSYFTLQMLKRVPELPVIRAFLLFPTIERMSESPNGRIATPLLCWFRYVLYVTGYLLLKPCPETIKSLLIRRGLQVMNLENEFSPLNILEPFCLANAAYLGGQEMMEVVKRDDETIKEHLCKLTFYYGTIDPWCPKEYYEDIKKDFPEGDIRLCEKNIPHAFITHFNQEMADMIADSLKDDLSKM

In test [2] the target is T2, C12orf60-Uncharacterized protein C12orf60 (human, UniProt Q5U649 1-245).
T2 sequence (looked up): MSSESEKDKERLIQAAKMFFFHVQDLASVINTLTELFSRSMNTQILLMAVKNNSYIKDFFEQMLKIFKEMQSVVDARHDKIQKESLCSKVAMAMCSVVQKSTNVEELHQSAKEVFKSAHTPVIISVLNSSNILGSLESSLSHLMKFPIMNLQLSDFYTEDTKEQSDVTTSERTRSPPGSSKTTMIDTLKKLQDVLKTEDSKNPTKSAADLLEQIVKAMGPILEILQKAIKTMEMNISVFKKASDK

The target of test [3] is T3, LTC4S-Leukotriene C4 synthase (human, UniProt Q16873 1-150).
T3 sequence (looked up): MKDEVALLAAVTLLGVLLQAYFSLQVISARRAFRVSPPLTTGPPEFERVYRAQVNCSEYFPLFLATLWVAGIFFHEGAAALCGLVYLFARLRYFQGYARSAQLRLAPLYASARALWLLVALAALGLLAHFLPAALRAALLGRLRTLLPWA

Test [4] concerns the target T4, GAL-galanin prepropeptide (GAL) (human, UniProt P22466 1-123, limits assumed).
T4 sequence (looked up): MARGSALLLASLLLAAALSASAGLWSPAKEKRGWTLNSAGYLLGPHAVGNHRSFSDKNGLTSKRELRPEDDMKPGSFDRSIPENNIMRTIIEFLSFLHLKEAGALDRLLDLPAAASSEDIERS

Test [5] has as its target SCGB2A2-Mammaglobin-A (human, UniProt Q13296 19-93, limits assumed).
In test [6] the target is PSMA8-proteasome (prosome, macropain) subunit, alpha type, 8 (PSMA8) (human, UniProt Q8TAA3 1-256, limits assumed).
PSMA8-proteasome (prosome, macropain) subunit, alpha type, 8 (PSMA8), sequence (Q8TAA3 whole entry): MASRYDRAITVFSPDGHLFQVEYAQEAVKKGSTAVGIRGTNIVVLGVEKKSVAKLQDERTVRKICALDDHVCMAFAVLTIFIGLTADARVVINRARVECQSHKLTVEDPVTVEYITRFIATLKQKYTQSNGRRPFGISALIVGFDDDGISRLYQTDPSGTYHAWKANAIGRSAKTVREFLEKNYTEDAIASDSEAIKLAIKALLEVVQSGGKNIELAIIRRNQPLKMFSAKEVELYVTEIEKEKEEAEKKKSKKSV
The target in test [7] is T5, CAB39L-Calcium-binding protein 39-like (human, UniProt Q9H9S4 1-337).
T5 sequence (looked up): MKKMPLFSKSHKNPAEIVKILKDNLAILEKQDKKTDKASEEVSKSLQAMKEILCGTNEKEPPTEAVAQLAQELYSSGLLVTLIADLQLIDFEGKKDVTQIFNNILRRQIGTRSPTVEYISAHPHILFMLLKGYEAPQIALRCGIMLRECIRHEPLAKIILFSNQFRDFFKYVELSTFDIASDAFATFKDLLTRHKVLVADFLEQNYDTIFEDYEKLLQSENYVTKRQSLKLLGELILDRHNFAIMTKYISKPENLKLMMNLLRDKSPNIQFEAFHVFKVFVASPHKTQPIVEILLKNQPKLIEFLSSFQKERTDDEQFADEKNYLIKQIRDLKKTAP

The target of test [8] is C10orf83-chromosome 10 open reading frame 83 (C10orf83) (human, UniProt Q8NDC4 1-146, limits assumed).
C10orf83-chromosome 10 open reading frame 83 (C10orf83), sequence (Q8NDC4 whole entry): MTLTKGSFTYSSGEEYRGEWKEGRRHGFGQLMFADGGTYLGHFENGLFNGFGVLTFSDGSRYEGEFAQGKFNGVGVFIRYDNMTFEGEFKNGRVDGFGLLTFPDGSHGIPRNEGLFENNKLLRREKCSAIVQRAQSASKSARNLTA
Test [9] deals with T6, C10orf58-chromosome 10 open reading frame 58 (C10orf58) (human, UniProt Q9BRX8 1-229, limits assumed).
T6 sequence (looked up): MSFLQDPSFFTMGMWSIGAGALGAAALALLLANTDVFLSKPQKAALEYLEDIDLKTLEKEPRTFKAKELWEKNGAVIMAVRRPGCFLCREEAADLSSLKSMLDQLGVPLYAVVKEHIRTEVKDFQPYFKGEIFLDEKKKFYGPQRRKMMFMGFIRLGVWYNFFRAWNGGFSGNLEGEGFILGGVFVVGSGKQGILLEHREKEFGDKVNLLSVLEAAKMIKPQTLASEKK

The target of test [10] is T7, SNFT-Jun dimerization protein p21SNFT (SNFT) (human, UniProt Q9NR55 1-127).
T7 sequence (looked up): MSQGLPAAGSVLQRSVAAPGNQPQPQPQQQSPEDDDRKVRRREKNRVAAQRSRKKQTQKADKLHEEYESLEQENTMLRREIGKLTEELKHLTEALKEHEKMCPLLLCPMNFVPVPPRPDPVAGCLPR

For test [11], the target named is SERPINB2-serpin peptidase inhibitor, clade B (ovalbumin), member 2 (SERPINB2) (human, UniProt P05120 1-415).
SERPINB2-serpin peptidase inhibitor, clade B (ovalbumin), member 2 (SERPINB2), sequence (P05120 whole entry): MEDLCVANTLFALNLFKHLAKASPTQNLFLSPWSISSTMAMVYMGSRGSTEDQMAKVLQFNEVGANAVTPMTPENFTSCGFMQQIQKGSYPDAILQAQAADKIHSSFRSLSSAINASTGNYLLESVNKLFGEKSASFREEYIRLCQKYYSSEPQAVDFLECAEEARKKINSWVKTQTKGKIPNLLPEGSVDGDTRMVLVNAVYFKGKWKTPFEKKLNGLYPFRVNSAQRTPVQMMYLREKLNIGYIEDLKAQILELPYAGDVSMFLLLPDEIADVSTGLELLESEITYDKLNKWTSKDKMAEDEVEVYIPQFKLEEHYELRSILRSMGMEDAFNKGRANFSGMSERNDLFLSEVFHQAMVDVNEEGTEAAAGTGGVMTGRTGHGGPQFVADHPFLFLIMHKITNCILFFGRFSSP
The target of test [12] is T8, CTXN1-cortexin 1 (CTXN1) (human, UniProt P60606 1-82).
T8 sequence (looked up): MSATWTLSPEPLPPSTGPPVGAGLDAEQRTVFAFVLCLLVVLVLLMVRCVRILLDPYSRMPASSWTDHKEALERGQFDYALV

Test [13] has as its target TMEM97-transmembrane protein 97 (TMEM97) (human, UniProt Q5BJF2 1-176).
Test [14] deals with T9, LRRC20-leucine rich repeat containing 20 (LRRC20) (human, UniProt Q8TCA0 1-184, limits assumed).
T9 sequence (looked up): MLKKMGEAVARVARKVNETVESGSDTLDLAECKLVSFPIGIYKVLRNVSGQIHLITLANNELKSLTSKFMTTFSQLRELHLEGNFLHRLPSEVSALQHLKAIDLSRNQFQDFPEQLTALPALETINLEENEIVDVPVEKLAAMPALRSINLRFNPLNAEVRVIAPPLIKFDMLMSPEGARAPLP

SCGB2A2-Mammaglobin-A, sequence (Q13296 19-93 limits assumed): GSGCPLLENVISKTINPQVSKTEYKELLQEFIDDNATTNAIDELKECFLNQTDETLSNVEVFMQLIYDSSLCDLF
TMEM97-transmembrane protein 97 (TMEM97), sequence (Q5BJF2 whole entry): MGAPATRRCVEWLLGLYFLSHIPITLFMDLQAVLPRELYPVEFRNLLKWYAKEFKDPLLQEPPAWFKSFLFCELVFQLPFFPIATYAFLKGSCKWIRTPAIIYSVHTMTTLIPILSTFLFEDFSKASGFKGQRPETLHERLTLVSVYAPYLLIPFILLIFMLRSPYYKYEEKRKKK

B1: 3× Flag-3×MBT (designed binder)
chain: EEWSSSQPATGEKKECWSWESYLEEQKAITAPVSLFQDSQAVTHNKNGFKLGMKLEGIDPQHPSMYFILTVAEVCGYRLRLHFDGYSECHDFWVNANSPDIHPAGWFEKTGHKLQPPKGYKEEEFSWSQYLRSTRAQAAPKHLFVSQSHSPPPLGFQVGMKLEAVDRMNPSLVCVASVTDVVDSRFLVHFDNWDDTYDYWCDPSSPYIHPVGWCQKQGKPLTPPQDYPDPDNFCWEKYLEETGASAVPTWAFKVRPPHSFLVNMKLEAVDRRNPALIRVASVEDVEDHRIKIHFDGWSHGYDFWIDADHPDIHPAGWCSKTGHPLQPPLGPREPSSASPGG
notes: also called Flag-tagged 3×MBT; 3xFlag-3xMBT; not shown: made by PreScission cleavage of GST-3× Flag-3×MBT
On to B1, for which the “GST Average SNR” value in test [1] was -0.147; in [2], -0.007; in test [3], 1.21; in [4], -0.0625; in test [5], 0.983; in [6], -0.846. Besides, the “GST Average SNR” value in test [7] turned out to be 0.182; in test [8], 0.742; in test [9] it was 0.966; in test [10], 1.05; in test [11], 0.54; in test [12] it was 1. In addition, the figures for the “GST Average SNR” value in [13] and in test [14] were -1.53 and 1.4, respectively.

Values taken from patent US20140274782A1 (Stanford University, published 2014).
